In this assay the target is papain (UniProt P00784).
Sequence of UniProt P00784 (P00784 134-345): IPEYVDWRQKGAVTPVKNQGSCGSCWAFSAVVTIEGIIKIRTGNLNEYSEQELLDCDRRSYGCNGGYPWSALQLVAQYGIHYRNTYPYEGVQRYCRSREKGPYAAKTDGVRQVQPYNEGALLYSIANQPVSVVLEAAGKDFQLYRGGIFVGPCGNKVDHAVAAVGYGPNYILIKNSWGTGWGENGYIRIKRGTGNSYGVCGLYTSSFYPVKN

In turn, “recombinant cystatin-B from the red piranha Pygocentrus nattereri (natural protein)” came in with an inhibition of papain proteolytic activity on azocasein (absorbance); rCYST-B 0-80 μg (text: μg/μL) pre-incubated with 10 μL papain (0.1 μg/μL) at 28°C for 30 min; inhibition rises from 30 μg/μL of 100%.
